19 sequences from a protein production outcome set (Wang et al. 2014) can be followed below.

The nature of the data set: label from the status in PepcDB records.

As for “MAARRAPISRRDRPAKPALSRRWIVDTAVALMRAEGLEKVTMRRLAQELDTGPASLYVYVANTAELHAAVLDALLGEVDLTGAGAEEDWREQLRAVLTSYTLVLFAHPQLARSALVARPSGENYLRLVERVLELLARSGAPGAQVAWGVDKLLQDATATAAEQATQEHDPASHEDWSATVRALRDADEATHPAIASHMPLLVAGSAHDRLRWSFDVLVNGITRTPVPGPARGAAG”, the protein production entry is “not failed”.
The result for “MAASAHGSVWGPLRLGIPGLCCRRPPLGLYARMRRLPGPEVSGRSVAAASGPGAWGTDHYCLELLRKRDYEGYLCSLLLPAESRSSVFALRAFNVELARVKDSVSEKTIGLMRMQFWKKTVEDIYCDNPPHQPVAIELWKAVKRHNLTKRWLMKIVDEREKNLDDKAYRNIKELENYAENTQSSLLYLTLEILGIKDLHADHAASHIGKAQGIVTCLRATPYHGSRRKVFLPMDICMLHGVSQEDFLRRNQDKNVRDVIYDIASQAHLHLKHARSFHKTVPVKAFPAFLQTVSLEDFLKKIQRVDFDIFHPSLQQKNTLLPLYLYIQSWRKTY” reads “failed”; that for “MAATRLKRRKFPTINEEFYYNQLENGMTVFLIPKESFKETLAVMSSRFGSIDTNFTVNGKKKSYLAGIAHLLEHQLFEMNKQKDAAYEFTKLGAESNAYTTFDKTIYYFSTADNIKKNLDLLQEFTSQINFTDMSIEKEKKIITQEFNMYQDDSDDYLYQVILSKLYPQTSLAEDITGNRDSIDKLTKNNLEENFHYFYQPENLTLLVAGDFDVKRVYKDIVTTQRQLPDRP”, “failed”.
The result for “MAAVPPENGVDGDDEREEEEEDEEEEEEEEEEENGDEAEEEPRLKYQRMGGNVPALLSNDAASCIAVAARMIALGTHDGTVRILDLLGNQVKEFRAHTAPVNDINFDTEGEYIGSCSDDGSVVINSLFTDDEKMKFDYHRPMKAISLDPDYTKKQSKRFVAGGLAGHLYMNSKKWFGNKDQVLHSGEGPIHSVKWRGSLIAWANDVGVKVYDTAKDQRVTFIEKPRGSPRPEALLPHLVWQDDTLLVIGWGTSVKIASIKSDQQQTGTFRQIQMSSLTQVDIVASFQTSYYISGIAPFGDSLVILAYIPIEGDGEKEFSSTTTLSRQGNAQRPEIRIVSWNNDELTMDALPVHGFEHYKAKDYSLAHAPFPGSSYAGGQWAAGDEPLYYIVSPKDVVIAKPRDAEDHINWLLQHGFHEKALAAVEASEGRTELIDKVGAGYLDHLIVERKYAEAASLCPKLLRGSASAWERWVFHFAQLRQLPVLVPYMPTDNPRLKDTVYEVALVALATNPSYHKELLSAVKSWPRSVYSALTVISAIEPQLNTSSMTDALKEALAELYVIDGQYQKAFSLYADLLKPEVFDFIEKYSLHEAIRGKVVQLMLLDCKRATVLFIQNRDLIPPSEVVPQLLKAGKNPQVLKAGKKCDSRYYLYLYLHALFEVSHDTGKDFHDMQVELYAEYDTKMLLPFLRSSQHYKLEKAYELCVKKDFLREQVFVLGRMGNAKQALAVIINKLGDIEEAVEFVSMQHDDDLWEELIKQCLNKPEMVGLLLEHTVGNLDPLYIVNMVPNGLEIPRLRDRLVKIVTDYRTETSLRHGCNDILKTDIVNLLVKCFNEARRGVCLSHEDDDSRAKREDNNRSSFSQRMVVDKSLSIKMTEVKSKTRGDTRCCMCFDPVSIRGDTVVVFFCCHAYHETCLMDAAFSNNNHKTTKGSSGYEYSYDNGVDEEEEDEEEDEDGDGDRPGRSRLRCILCTTAAAASAR” reads “failed”; that for “MAAVVAATALKSRGARNARVLRGILAGATANKVSHNRTRALQSHSSSEGKEEPEPLSPELEYIPRKRGKNPMKAVGLAWYSLYTRTWLGYLFYRQQLRRARNRYPKGHSKTQPRLFNGVKVLPIPVLSDNYSYLIIDTQAQLAVAVDPSDPRAVQASIEKEGVTLVAILCTHKHWDHSGGNRDLSRRHRDCRVYGSPQDGIPYLTHPLCHQDVVSVGRLQIRALATPGHTQGHLVYLLDGEPYKGPSCLFSGDLLFLSGCGRTFEGNAETMLSSLDTVLGLGDDTLLWPGHEYAEENLGFAGVVEPENLARERKMQWVQRQRLERKGTCPSTLGEERSYNPFLRTHCLALQEALGPGPGPTGDDDYSRAQLLEELRRLKDMHKSK”, “failed”; that for “MACFSGTVYLVACRFRSRGNSMPYKISQYVLDDATPDDSGIVQGDMDVFIHQLMTLMEASQQGYALFDGNDELRFANSAFRAALGIGRHEFPSWVDMMRSGYRTTTGTSIETSDFELWLRSAKTRRGKLPFRTIETSLKDGRWMLTTETTLPGGWMLCVITDVSELGIELRDLRQERDRALKSALSDELTGLGNRRYAMDTLNHLLGPNKAQALAVIIMDIDHFKSVNDRFGHAYGDLVLKDFAARLSATAGRDDLLGRIGGEEFLLVLSGSRMHSADSLMRQLLSSLAQASPLGDRPDFRYSCSAGIAYANPGESASEVLRHADTALYEAKNTGRNRYVIYATVP”, “failed”.
As for “MACGATLKRPMEFEAALLSPGSPKRRRCAPLPGPTPGLRPPDAEPPPLQMQTPPASLQQPAPPGSERRLPTPEQIFQNIKQEYNRYQRWRHLEVVLSQSEACTSETQPSSSALTAPGSPGAFWMKKDQPTFTLRQVGIICERLLKDYEDKVREEYEQILSTKLAEQYESFVKFTHDQIMRRYGTRPTSYVS”, the entry is “failed”; as for “MACGEFSLIARYFDRVRSSRLDVELGIGDDCALLNIPEKQTLAISTDTLVAGNHFLPDIDPADLAYKALAVNLSDLAAMGADPAWLTLALTLPDVDEAWLESFSDSLFDLLNYYDMQLIGGDTTRGPLSMTLGIHGFVPMGRALTRSGAKPGDWIYVTGTPGDSAAGLAILQNRLQVADAKDADYLIKRHLRPSPRILQGQALRDLANSAIDLSDGLISDLGHIVKASDCGARIDLALLPFSDALSRHVVPEQALRWALSGGEDYELCFTVPELNRGALDVALGHLGVPFTCIGQMTADIEGLCFIRDGEPVTLDWKGYDHFATP”, “not failed”.
With “MACGKGHDIMEVASPYGWKKNPQKVLDFYNQRRRQLFEVYPNKAHKALAELEKHYQVNIITQNVDDLHERAGSSRILHLHGELLSVRSEKDPNLVYRWEKDLNLGDLAKDKSQLRPDIVWFGEAVPLLKEAISLVKQAHLLIIIGTSLQVYPAASLYTHAHKDALIYYIDPKAKNAHLPQNVQCINESAVHAMQDLMPKLIEMAS”, the protein production entry is “failed”.
As for “MACSRFERQNMFKLCLDFTQKRAPMSQKQPINLVLSGGGTRAIGHLAIISALLERGFEIRAISGSSGGAIVGSLLASGKSPKECYDLLLKTNFVRLFAFKMSQGGLFHLKRGEAYLEKILGIKEFSELSLPLYVCVVDLKEGRPFFLSEGNIAKAVIASSSISPFMRPVEMEGRMGADGGIMNNLPIEPFLEENLPIIGINVNPNRPFHSHSMVSIAKRALFLQFYSNILERSKLCSLYLEPSGIDAYTIYDLKSLESVYNLCQEWCETNLDALIGDVPLHVLRP”, the entry is “failed”.
As for “MADEMMVKELEEVVVRFSGDSGDGMQLAGNIFSNVSATVGNDICTFPDYPADIRAPQGSLTGVSGFQVHVGASKIFTPGDHCHVLVAMNPAALKTQIKFCKPQGLVITDSDSFGEKDLEKAQFKTGNPFEEMGITQQVLEVPISSMCKESLKNSGLDNKAMLRCKNMFALGLVCWLFNRNLSAAEKMLNEKFAKKPEIAAANIKVLNDGYNYGANTHASTSTYKIESKTPKAAGLYTDINGNKATSYGLIAAAEKAGLELYLGSYPITPATDILHELAKHKSLGVKTVQCEDEIAGCASAVGAAFAGDLAVTTTSGPGVCLKSEAMNLAVIAELPLVVVNVQRGGPSTGMPTKSEQTDLLQALYGRNGESPMPVIAATSPTNCFDAAYMAAKIALEHMTPVVLLTDAFIANGSAAWKLPNMDEYPAINPPYVTPDMIGTWTPFQRNEKTGVRYWAVPGTEGFMHRIGGLEKSSETGVISTEPENHQKMTLLRQAKVDKIADSIPEQEVQGDADADLLVVGWGGTYGHLYSAVEHMRKNGKKVALAHFQYINPLPKNTAEILKKYKKIVVAEQNLGQFAGYLRMKVPGLNISQFNQVKGQPFVTRELVEAFTKLLEE”, the entry is “not failed”; as for “MADFQVVVGDDDGTAYSFEVDGQDANRFIGRAIGETVDGDAVGLPGYELEITGGSDQSGRPMHGDINGAETAAILSEGGVGFNPTVDGERKRVTVRGAEVSEDTRQINASIVSRGEQSIDDLLGGEDDE”, “failed”; as for “MADGIYGSFENLKKHAGAMTLETYMRFNAKLSEAKDEMGAKEYEEFTKELKKLTNAKLAYGDSNGNIDYDGLSPAKREEMKKVSMGLQPYFDKLNGHKSSKEVLTQEEFDRYMEALMTHEIVRVKTKSTGAIKIEEVPEAYKERFIKAEQFMEYVDEKVR”, “not failed”.
In the case of “MADIINNIVGGRYYILELIGRGGSAIVYKARDIHNGGIYALKKYITSDPANRKRLLEGMERELEVLKNCTHPVLPKIFDLIKIEDAFFLVMEYIDGIDLKKYVDEYGTLSTKMLIKVMEQVCSGFYYLHSLSPAIVYRDLKPANIILCKDGRIKLIDFGIAKRYRTDIDVDKLALGSKGFAAPEQFGDSKGKGLYNTDIRADIYGIGTTMYYLKTAKTYNSVPGSKSLYSFKDYFKTSHKLRKIIKKCTKNNPDLRYQSCIEILCSIKTLHIIGK”, the protein production entry is recorded as “failed”.
As for “MADIQGEDLESLYGYAKQLFDGGEIAAARNVYQLLSTLDHWNFDYLLALGLCHQRLGAHNEAVVCFGRAGLIKVDDPRAAFYAGISYRLDGNAEYASKAFKAAINWCGEQIDYQAIKASAVDMLALQQEEVPLEHHHHHH”, the entry is “not failed”; as for “MADLSFIEDTVAFPEKEEDEEEEEEGVEWGYEEGVEWGLVFPDANGEYQSPINLNSREARYDPSLLDVRLSPNYVVCRDCEVTNDGHTIQVILKSKSVLSGGPLPQGHEFELYEVRFHWGRENQRGSEHTVNFKAFPMELHLIHWNSTLFGSIDEAVGKPHGIAIIALFVQIGKEHVGLKAVTEILQDIQYKGKSKTIPCFNPNTLLPDPLLRDYWVYEGSLTIPPCSEGVTWILFRYPLTISQLQIEEFRRLRTHVKGAELVEGCDGILGDNFRPTQPLSDRVIRAAFQLEHHHHHH”, “not failed”.
For “MADLYTVVSSIILLFIVLDPVGVSPYVASIVARRPEGERERIVRTALASAGAILVAFTLIGVAVLDILGVSMDEFKVAAGLLLLIYATADLFEIKIGYSEPSGDEVAIFPLATPLLAGPGSIATVMYIMGSSGIAVALIAILVNLVLAYPILHASLKLVRLLGRHGSLLVAKFTAFLMVGFAVSIIFDGLRGIVPGVFS”, the protein production entry is “failed”.
In the case of “MADMTKQAFMRLSNPKFIMLFLILWVSLLLSSNHTLSQLADYIFFTFLGTLGAIFANSTGAGGGVVFIPMFTQLNFTEQQSIATSFAIQCFGMTAGAVTWWHHYRTEKTDLRLWQGFKRIICVTTIASIIGLNAVFFYQVNSPATLHTSFSWFSLLLGFFIVLTIYLLQPHRERSQLYYVDYIFLILIGLFGGAVTAWLSVGVGELLVIYLLLRHFDISMAVAAAVIVSAISVWTAIAQVNSDVYWQVVLFAGPGAVLGGIFAKTLVTHLSAIKLKLFFACWLLLSGVVGLI”, the protein production entry was “failed”.
Consider “MADQAPRPAREFVVEADGGSRGNPGPAGYGAVVLDPVTGEALVEAAEYLGVVTNNVAEYRGLLAGLRAAAELDPDATVHVRMDSKLVVEQMSGRWKIKHPDMKPLAAEAARVFPPGRVTYEWIPRASNKHADRLANEAMDAGARGEAWSPSDSTAELDAAAADRAAPAGRTAGSRRTGAASAVAPAGTEGGDGGEPAPDGGGAAAGEPLARAGRDRVDAASLGAGTRAATSTGASATGTSGTGASATGTSGTGASATGAPGLGVAAETSGEADVRAAKVVASPGWGPPDMGAPATFVLLRHGETPLTPQKRFSGSGGSDPSLSPVGREQAERVAASLARRGTIEAVVASPLARTRETAGIVAARLGLEVAIEEGLRETDFGAWEGLTFGEVRERHPADLDAWLASPDAEPTGGGESFAATGTRIAATRDRLVAAYAGRTVLLVSHVTPIKTFVRLALGAPPESLFRMELSAASLSAVAYYADGGASVRLFNETSHLR”, for which the protein production entry is “failed”.
